Changes are numbered by the printed parent chain.
B1: 105F1E10 (LAG-3 mouse-human chimeric antibody) (antibody, V domains shown)
VH: EVQLQQSGPELVKPGASVKMSCRASGYTFTDFKMHWMKQSHGKSLEWIGYIAPNNGGTAYNQKFRGKATLTVNESSNTAYMELRSLTSEDSAVYYCVDWDDVDYWGQGTTLTVSS
VL: DIKMTQSPSSMYASLGERVTITCKASQDINSYLSWFQQKSGKSPKTLIYRANRLVDGVPSRFSGSGSGQDYSLTISSLEYEDMGIYYCLQYVEFPLTFGAGTKLELK
B2: 405B8H3 (LAG-3 mouse-human chimeric antibody) (antibody, V domains shown)
VH: QVQLQQSGAELVRPGASVTLSCKASGYTFTDYEMHWVKQTPVHGLEWIGATDPETGNSAYNQKFKGKAIMTADKSSSTAYMELRSLTSEDSAVYYCISTGWNDWGQGTSLTVSS
VL: B1 VL with S40P, N52D, V55L, E81G, V92D, L96Y, A100G, L106I
notes: also called mouse-human chimeric antibody 405B8H3
B3: 409D4E10 (LAG-3 mouse-human chimeric antibody) (antibody, V domains shown)
VH: B2 VH with Y27N, G56D, S58T, M70L, A72T, S98T, T99S
VL: B1 VL with S40P, V55L, V92N, L96Y, A100G, L106I
B4: 409B11E12 (LAG-3 mouse-human chimeric antibody) (antibody, V domains shown)
VH: B2 VH with P41T, G56S, N57Y, M70L, S98A
VL: B1 VL with I2L, S40P, V55L, V92D, L96Y, A100G, L106I
B5: 556F6B8 (LAG-3 mouse-human chimeric antibody) (antibody, V domains shown)
VH: RVQLKQSGPGLVQPSQSLSITCTVSGFSLIKYGVHWVRQSPGEGLEWLGVIWRGGITDYNAAFMSRLSITKDNSKSQVFFKMNSLQADDTAIYYCAKWDGPLAMDYWGQGTSVTVSS
VL: DIVMTQSHKFLSTSVGDRVSITCKASQDVGTTVAWYQQKPGQSPKLLIYWASTRHTGVPDRFTGSGSGTDFTLTISNVQSEDLADYFCQQYSSYPYTFGGGTKLEIK
notes: also called 556F8B8
B6: 405B8H3 (mouse antibody purified from hybridoma) (antibody, V domains shown)
VH: B2 VH
VL: B1 VL with S40P, N52D, V55L, E81G, V92D, L96Y, A100G, L106I
notes: also called mAb103-405B8H3; 405B81-13
B7: 105F1E10 (mouse antibody purified from hybridoma) (antibody, V domains shown)
VH: B1 VH
VL: B1 VL
notes: also called mAb009-105F1E10
B8: 409D4E10 (mouse antibody purified from hybridoma) (antibody, V domains shown)
VH: B2 VH with Y27N, G56D, S58T, M70L, A72T, S98T, T99S
VL: B1 VL with S40P, V55L, V92N, L96Y, A100G, L106I
notes: also called mAb112-409D4E10
B9: 409B11E12 (mouse antibody purified from hybridoma) (antibody, V domains shown)
VH: B2 VH with P41T, G56S, N57Y, M70L, S98A
VL: B1 VL with I2L, S40P, V55L, V92D, L96Y, A100G, L106I
notes: also called mAb104-409B11E12
B10: 556F6B8 (mouse antibody purified from hybridoma) (antibody, V domains shown)
VH: B5 VH
VL: B5 VL
notes: also called mAb123-556F6B8

Molecular target: T1, hFc tagged monkey LAG-3 protein (cLAG-3-hFc protein) (monkey; human)
T1 construct: Made in HEK293 cells; also called monkey LAG-3 extracellular domain protein; not shown: human IgG Fc fragment (hFc) of the pCpC vector
T1 chain: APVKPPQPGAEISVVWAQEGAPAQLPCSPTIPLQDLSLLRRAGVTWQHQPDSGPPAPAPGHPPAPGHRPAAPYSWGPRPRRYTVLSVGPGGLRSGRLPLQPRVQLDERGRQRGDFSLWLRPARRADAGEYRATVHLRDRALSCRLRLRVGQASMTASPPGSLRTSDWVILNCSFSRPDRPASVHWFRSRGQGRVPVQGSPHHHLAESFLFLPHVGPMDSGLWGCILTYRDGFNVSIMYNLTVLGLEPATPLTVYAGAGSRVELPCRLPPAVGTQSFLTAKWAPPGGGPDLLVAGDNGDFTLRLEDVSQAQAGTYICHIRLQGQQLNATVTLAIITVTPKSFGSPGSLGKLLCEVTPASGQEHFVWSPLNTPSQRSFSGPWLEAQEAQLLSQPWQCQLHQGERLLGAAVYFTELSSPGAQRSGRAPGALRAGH
Assay: ELISA, cLAG-3-hFc coated; 0.0001 nM
Protocol: (§1) The plate was sealed with plastic film and incubated overnight at 4° C. The plate was washed 2 times with the plate washing solution (PBS+0.01% Tween20) on the next day, and added with the blocking solution (PBS+0.01% Tween20+1% BSA) and blocked at room temperature for 1-2 hours. The blocking solution was poured out, and the plate was added with 50-100 μl of the antibody sample to be tested to each well, incubated at 37° C. for 1-2 hours, and washed 2-3 times with a plate washing solution (PBS+0.01% Tween20). HRP (horseradish peroxidase) labeled secondary antibody was added, and the plate was incubated at 37° C. for 1-2 hours, and washed 2-3 times with a plate washing solution (PBS+0.01% Tween20). 100 μl of TMB substrate was added to each well. After incubated at room temperature for 15-30 minutes, the plate was added with 100 μl of stop solution (1.0N HCl) to each well.

Binder	OD450 [OD450]
B1	0.14
B2	0.15
B3	0.19
B4	0.14
B5	0.18

Molecular target: T2, monkey LAG-3 (full length, on the cell surface) (monkey, UniProt P18627 24-525 (human entry))
T2 construct: also called HEK293-cLAG-3; monkey LAG-3 protein on the cell surface
T2 chain: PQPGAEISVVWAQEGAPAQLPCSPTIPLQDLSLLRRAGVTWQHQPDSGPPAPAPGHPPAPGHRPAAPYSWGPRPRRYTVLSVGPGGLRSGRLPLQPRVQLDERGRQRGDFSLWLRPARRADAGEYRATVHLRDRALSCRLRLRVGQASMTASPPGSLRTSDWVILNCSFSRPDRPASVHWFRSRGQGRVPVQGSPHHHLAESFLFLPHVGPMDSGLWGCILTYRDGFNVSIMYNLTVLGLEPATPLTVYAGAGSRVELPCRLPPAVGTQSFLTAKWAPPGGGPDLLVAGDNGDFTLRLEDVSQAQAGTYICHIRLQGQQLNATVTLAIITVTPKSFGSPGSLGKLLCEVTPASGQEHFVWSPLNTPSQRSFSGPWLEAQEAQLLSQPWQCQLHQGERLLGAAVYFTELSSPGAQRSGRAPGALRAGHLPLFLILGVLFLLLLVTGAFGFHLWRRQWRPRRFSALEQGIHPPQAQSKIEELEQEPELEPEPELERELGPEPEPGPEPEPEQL
Assay: FACS, HEK293-cLAG-3; 0.064 nM
Excerpt: The pIRES plasmid with the monkey-derived full-length gene was transfected into the HEK293 cell line to construct a HEK293 stable cell line containing monkey LAG-3 (herein referred to as HEK293-cLAG-3 stable cell line). The HEK293-hLAG-3 stable cell line and HEK293-cLAG-3 stable cell line were expanded in a T-75 cell culture flask to a 90% confluence. The medium was aspirated, and the cells were washed with HBSS (Hanks' Balanced Salt Solution) 1-2 times, then treated with a enzyme-free cell dissociation fluid (Versene solution: Life technology) and the cells were collected. The cells were washed with HBSS buffer for 1-2 times. After counted, the cells were diluted with HBSS to 1-2×10⁶ cells per ml, added with 1% goat serum blocking solution, incubated on ice for 20-30 minutes, and then washed with HBSS for 2 times by centrifugation. The collected cells were suspended in the FACS buffer (HBSS+1% BSA) to 2×10⁶ cells/ml, added as 100 microliters per well to a 96-well FACS reaction plate, added with 100 microliters per well of the antibody sample to be tested, incubated on ice for 1-2 hours. The plate was washed twice with the FACS buffer by centrifugation, added with 100 microliters of fluorescent (Alexa 488)-labeled secondary antibodies per well, and incubated on ice for 0.5-1.0 hours. The plate was washed 2-3 times with FACS buffer by centrifugation, added with 100 μl fixative solution (4% Paraformaldehyde) per well to suspend the cells. 5-10 minutes later, it was washed 1-2 times with FACS buffer by centrifugation. The cells were suspended with 100 microliters of FACS buffer, FACS (FACSCalibur, BD) was used for detection and the results were analyzed.

Binder	Mean fluorescence intensity [MFI]
B6	4.9
B7	4.5
B8	4.7
B9	4.2
B10	5.1

These binders were tested against T3, mouse LAG-3 protein with hFc tag (mLAG-3-hFc protein) (mouse; human, UniProt Q61790 24-442) (assay: ELISA, mLAG-3-hFc coated; 0.0007 nM).
T3 construct: Made in HEK293 cells; also called mouse LAG-3 extracellular domain protein; not shown: human IgG Fc fragment (hFc) of the pCpC vector
T3 sequence: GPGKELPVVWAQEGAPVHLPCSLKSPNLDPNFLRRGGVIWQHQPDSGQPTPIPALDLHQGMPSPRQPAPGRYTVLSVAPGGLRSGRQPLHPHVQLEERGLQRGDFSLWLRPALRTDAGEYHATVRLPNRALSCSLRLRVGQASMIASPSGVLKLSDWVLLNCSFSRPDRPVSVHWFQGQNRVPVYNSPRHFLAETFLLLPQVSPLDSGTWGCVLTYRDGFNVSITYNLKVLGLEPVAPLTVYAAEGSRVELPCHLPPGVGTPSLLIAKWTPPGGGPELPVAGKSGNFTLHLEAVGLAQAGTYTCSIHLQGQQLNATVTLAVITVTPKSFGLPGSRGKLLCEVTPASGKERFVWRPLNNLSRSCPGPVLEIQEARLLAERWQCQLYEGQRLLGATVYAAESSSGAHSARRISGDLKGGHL
Protocol: as §1

Binder	OD450 [OD450]
B1	0.08
B2	0.08
B3	0.13
B4	0.08
B5	0.08
